A short description of series [1]: Dependence of NHase activity on the temperature. It counts as biochemical. To be noted: for optimal temperature: 1 mM PPN. Here is the method: As enzyme samples cell free crude extracts were used either of the heterologously or homologously produced enzyme. The substrate (1 mM 2-phenylpropionitrile (PPN) in 50 mM Tris/HCl pH 7.5)) was equilibrated at the indicated temperatures before the reaction was started by addition of 50 μl of enzyme sample. The activity was determined as described in example 4.
As enzyme samples lyophilized cells or a cell free crude extract were used. The samples were equilibrated for 5 min at the indicated temperatures before the reaction was started by addition of PPN to a final concentration of 1 mM. The activity was determined as described in example 4.
(§1) If not otherwise indicated enzyme samples were prepared as follows: the cells from 1 ml of the culture were washed with 50 mM Tris/HCl pH 7.5 and resuspended in 750 μl of the same buffer. This suspension was incubated at 30° C. in a thermomixer at 1000 rpm. The biotransformation was started by addition of the substrate 2-phenylpropionitrile (PPN) in 50 mM Tris/HCl pH 7.5. The concentration of the substrate was 1 mM, if not otherwise stated. The reaction was stopped after 1 min, 5 min or 10 min as indicated by addition of 1 M HCl. Cells were removed by centrifugation and the supernatant analysed by HPLC for the presence of the corresponding amide. The HPLC analysis was carried out on a system comprising a Surveyor 4 channel Pump, AutoSampler and UVNIS detector at 210 nm from Thermo Finnigan on a Grom-Sil 1200DS-3 cp 3 μm (125×4.6 mm) reverse phase column. As mobile phase, acetonitrile and 0.3% H3PO4 were used in a ratio of 50:50 at a flow of 0.7 ml/min, respectively.
The optimal temperatures for the NHases according to Seq ID No. 2 and 4 (Raoultella terrigena, 77.1) and Seq ID. No. 18 and 20 (Klebsiella oxytoca, 38.1.2) were determined to be at 45° C. (FIG. 23 and FIG. 24). At 55° C. a residual activity of about 20% was found for the enzyme according to Seq ID-No. 18 and 20 whereas at 60° C. no activity could be determined.

The nature of series [2]: Activity of enzyme samples after heterologous expression of NHases in E. coli towards PPN. It counts as biochemical. To be noted: 1 mM PPN; stopped after 1 min; host E. coli BL21 (DE3) (a) or E. coli Rosetta (DE3) (b). How it is done: The amplified α-subunits were ligated to pET22b whereas the β-subunits were ligated to pET26b by use of the unique NdeI and XhoI restriction enzyme recognition sites. E. coli BL21 (DE3) or E. coli Rosetta (DE3) was cotransformed with the vectors carrying the genes for the corresponding α- and β-subunits of the NHases. Freshly transformed cells were grown over night at 37° C. in 5 ml LB-medium containing 100 μg/ml ampicillin, 25 μg/ml kanamycin and 2% (w/v) glucose. In case of E. coli Rosetta (DE3) 12.5 μg/ml chloramphenicol was additionally used. 1 ml of this culture was used to inoculate 100 ml of LB-medium containing 100 μg/ml ampicillin, 25 μg/ml kanamycin and 1% (w/v) glucose. Cells were incubated at 20° C. or 30° C. on a gyratory shaker at 100 rpm. At an optical density O.D.595=1 cells were induced by addition of 100 μg/ml IPTG. Simultaneously, CoCl2*6H2O was added in a concentration of 250 μM. When the P16K activator protein from the strain Brevibacterium linens was coexpressed with the corresponding NHase E. coli Rosetta (DE3) pET22—32B1α pET26—32B.1β pBBR5—32B_P16K was grown in LB-medium containing 100 μg/ml ampicillin, 25 μg/ml kanamycin, 12.5 μg/ml chloramphenicol and 10 μg/ml gentamycin and 1% (w/v) glucose. Samples were taken 24 h after induction.
as §1

Series [3] can be described thus: Determination of the isoelectric point (Phast-System). It counts as physicochemical. To be noted: purified enzyme. How it is done: The IEP of the purified enzyme according to Seq. ID No. 2 and 4 was determined to be 3.5-3.6 using the Phast-System (Amersham Pharmacia).

B1: NHase Seq ID No. 2 and 4: nitrile hydratase of Raoultella terrigena strain 77.1, α-subunit SEQ ID NO 2, β-subunit SEQ ID NO 4 (protein)
alpha: MSHKHDHDHTEPPVDIELRVRALESLLQEKGLIDPAALDELIDTYEHKVGPRNGAQVVARAWSDPEYKRRLMENATAAISELGFSGIQGEDMLVVENTPDVHNVTVCTLCSCYPWPVLGLPPVWYKSAPYRSRIVIDPRGVLAEFGLHIPESKEIRVWDSSAELRYLVLPERPAGTDGWSEAQLSELISRDSMIGTGVVTAP
beta: MNGIHDLGGMHGFGPIPTEENEPYFHHEWERRVFPMFASLFVGVHFNVDEFRHSIECMPPADYLQSSYYEHWLHAFETLLLAKGVITVDELWGGAKPTLCKPGTPVLTQDMVSMVVSTGGSARVSHDVAPRFRVGDRVRTKNFNPTTHTRLPRYARDKVGRIEIAHGVFITPDTAAHGLGEHPQHVYSVSFTAQELWGEPRPDNVFIDLWDDYLEEA
modifications: Raoultella terrigena, strain 77.1
In the case of B1, in series [1], the optimal temperature amounted to 45 °C and the “residual activity at 60° C.” value is listed as 60-79%. For the same molecule, in series [2], the vol. activity is 4.9 μkat/L cultur. Besides, in series [3], the IEP was 3.5-3.6.

B2: NHase Seq ID No. 18 and 20: nitrile hydratase of Klebsiella oxytoca strain 38.1.2, α-subunit SEQ ID NO 18, β-subunit SEQ ID NO 20 (protein)
alpha: MSHKHDHDHTQPPVDIELRVRALESLLQEKGLIDPAALDELIDTYEHKVGPRNGAQVVARAWSDPEYKRRLMENATAAIAELGFSGIQGEDMLVVENTPDVHNVTVCTLCSCYPWPVLGLPPVWYKSAPYRSRIVIDPRGVLAEFGLHIPENKEIRVWDSSAELRYLVLPERPAGTEGWSEAQLSELITRDSMIGTGVVTAP
beta: MNGIHDLGGMHGLGPIPTEENEPYFHHEWERRVFPLFASLFVGGHFNVDEFRHAIERMAPTEYLQSSYYEHWLHAFETLLLAKGVITVEELWGGAKPAPCKPGTPVLTQEMVSMVVSTGGSARVSHDVAPRFRVGDWVRTKNFNPTTHTRLPRYARDKVGRIEIAHGVFITPDTAAHGLGEHPQHVYSVSFTAQALWGEPRPDKVFIDLWDDYLEEA
modifications: Klebsiella oxytoca, strain 38.1.2
For the molecule B2, in series [1], the optimal temperature was 45 °C and the “residual activity at 60° C.” value is recorded as “no activity”. Besides, in series [1] (55° C.), the “residual activity at 55° C.” value is on record as “about 20%”. In series [2], this molecule registered a spec. activity of 9.6 μkat/g cdw and a vol. activity of 8.6 μkat/L cultur.

The values above are taken from US8470576B2, “Group of novel enantioselective microbial nitrile hydratases with broad substrate specificity” (B.R.A.I.N. AG, priority 2006, dated 2013).
